Reference: publication PMC4660060, “The molecular architecture of the Dam1 kinetochore complex is defined by cross-linking based structural modelling” (Nature Communications, 2015)

Target: the molecule itself
Test: TIRF microscopy, tracer residence time; GFP-tagged and unlabelled versions of the same mutant Dam1 complex mixed 1:100 to 2 nM in all (20 pM tracer), on immobilised MTs; BRB80, 0.8 mg/ml kappa-casein, 50 mM KCl, oxygen scavengers; concentrations that support oligomeric rings

| Protein | fold increase of the average residence time on MTs against single molecules [fold] | binding result |
| --- | --- | --- |
| Dam1-GFP NP complex, mock-treated (Dam1p S257A, S265A, S292A, Ask1p S200A, Spc34p T199A) (complex, yeast, GFP-tagged complex, detected by its GFP; In the tracer assay 20 pM of this complex met 2 nM of the same mutant complex without GFP; also called Dam1 NP mock; Dam1 NP; source: recombinant Dam1 complex (E. coli BL21 Rosetta, purified); mock-treated with GST-Ipl1 and GST-Sli15 (554-698), distilled water in place of ATP; copies: + + + + + + + + +) chain 1: MDSASKEETLEKLDQEITVNLQKIDSNLSFCFHKITQDIIPHVATYSEICERIMDSTEWLGTMFQETGLVNLQANAAAPVGNAPVKSLVSNNVGIFPTSAEEASRQSQTDNGPNEADSAVHVNRDVHSMFNNDSIDDFHTANITSTGQILKLPDSSDEDTGSEAVPSREQTDLTGEGHGGADDEQDESTIQRQSRKRKIALLLQQQYGSSSSMVPSPIVPNKMRKQLAHEEHINNDGDNDDENSNNIESSPLKQGHHHPKGQADDNNEGPDEEESTKEVPKPGTIIHFSTNR chain 2: MMASTSNDEEKLISTTDKYFIEQRNIVLQEINETMNSILNGLNGLNISLESSIAVGREFQSVSDLWKTLYDGLESLSDEAPIDEQPTLSQSKTK chain 3: MDSIDEQIAIKRKELQSLQKITSLTDGLKIQLTELNEQIKEMGMNADSVAQLMNNWDSIINNISQASLGLLQYAEGDYEIGPWKDSKKKESEQSNETGLEAQENDKNDEDNDEDEDLVPLPETMVRIRVDGNE chain 4: MEHNLSPLQQEVLDKYKQLSLDLKALDETIKELNYSQHRQQHSQQETVSPDEILQEMRDIEVKIGLVGTLLKGSVYSLILQRKQEQESLGSNSK chain 5: MENPHEQVQANILSRIIGNVKRLNESVAILNQELVTINNRNKNLEIMGAICDNYHSSVQFNLEATNNKKPPL chain 6: MSEDKAKLGTTRSATEYRLSIGSAPTSRRSSMGESSSLMKFADQEGLTSSVGEYNENTIQQLLLPKIRELSDSIITLDSNFTRLNFIHESLADLNESLGSLLYGIMSNSWCVEFSQAPHDIQDDLIAIKQLKSLEDEKNNLVMELSNMERGIKRKKDEQGENDLAKASQNKQFNQPLFPSSQVRKYRSYDNRDKRKPSKIGNNLQVENEEDYEDDTSSEASFVLNPTNIGMSKSSQGHVTKTTRLNNNTNSKLRRKAILHTIRNAIASGADLPIENDNVVNLGDLHPNNRIALGSGAARVVNGPVTKNRNSMFSGRAERKPTESRHSVAKKTEKKINTRPPFR chain 7: MSEQSQLDDSTIDKLIPQIFNEMRSNLNNTTNKFPKSTGGGASDNISANSNSIRSFNSITTQSLLKESESLDKITAMIKNVTAALKNNLPVYVNQVHEVCKSTNSILDSWINIHSQAGYIHKLMSDQTYLKLINDRLHNENVNTNDEDGSTLHNVIALKKKEILDLRQKLENRKGEKDAAPAKPPNQGLNPRYGVQSGRRPVPSAGISNNGRVRKTHVPASKRPSGIPRVTNRWTKPTASSSRKMFR chain 8: MNANKQRQYNQLAHELRELQTNLQETTKQLDIMSKQCNENLVGQLGKVHGSWLIGSYIYYMEQMLGKTQ chain 9: MTDALEQSVLALEGTVSVLKDSVESLKCANEPSTNLASTMLQTKRVFRLVPEYDVERSKLDLIEEVEPLVRTLGDKLRKSMGRMQRELDTLQQTYELNDLRLKKNISMDDDDALNSPDMGQEYEGRDADDVVMMASSTNEELEELKKLKEKKKQLENKLEILKQK chain 10: MGESLDRCIDDINRAVDSMSTLYFKPPGIFHNAILQGASNKASIRKDITRLIKDCNHDEAYLLFKVNPEKQSVSRRDGKEGVFDYVIKRDTDMKRNRRLGRPGEKPIIHVPKEVYLNKDRLDLNNKRRRTATTSGGGLNGFIFDTDLIGSSVISNSSSGTFKALSAVFKDDPQIQRLLYALENGSVLMEEESNNQRRKAIFVEDFPTDLILKVMAEVTDLWPLTEFKQDYDQLYHNYEQLSSKLRFIKKEVLLQDDRLKTMSQYHPSSSHDVAKIIRKEKDEIRRLEMEIANLQE | > 5 |  |
| Dam1-GFP CP complex, mock-treated (Dam1p S20A, Ask1p S200A, Spc34p T199A) (complex, yeast, GFP-tagged complex, detected by its GFP; In the tracer assay 20 pM of this complex met 2 nM of the same mutant complex without GFP; also called Dam1 CP mock; Dam1 CP; source: recombinant Dam1 complex (E. coli BL21 Rosetta, purified); mock-treated with GST-Ipl1 and GST-Sli15 (554-698), distilled water in place of ATP; copies: + + + + + + + + +) chain 1: MDSASKEETLEKLDQEITVNLQKIDSNLSFCFHKITQDIIPHVATYSEICERIMDSTEWLGTMFQETGLVNLQANAAAPVGNAPVKSLVSNNVGIFPTSAEEASRQSQTDNGPNEADSAVHVNRDVHSMFNNDSIDDFHTANITSTGQILKLPDSSDEDTGSEAVPSREQTDLTGEGHGGADDEQDESTIQRQSRKRKIALLLQQQYGSSSSMVPSPIVPNKMRKQLAHEEHINNDGDNDDENSNNIESSPLKQGHHHPKGQADDNNEGPDEEESTKEVPKPGTIIHFSTNR chain 2: MMASTSNDEEKLISTTDKYFIEQRNIVLQEINETMNSILNGLNGLNISLESSIAVGREFQSVSDLWKTLYDGLESLSDEAPIDEQPTLSQSKTK chain 3: MDSIDEQIAIKRKELQSLQKITSLTDGLKIQLTELNEQIKEMGMNADSVAQLMNNWDSIINNISQASLGLLQYAEGDYEIGPWKDSKKKESEQSNETGLEAQENDKNDEDNDEDEDLVPLPETMVRIRVDGNE chain 4: MEHNLSPLQQEVLDKYKQLSLDLKALDETIKELNYSQHRQQHSQQETVSPDEILQEMRDIEVKIGLVGTLLKGSVYSLILQRKQEQESLGSNSK chain 5: MENPHEQVQANILSRIIGNVKRLNESVAILNQELVTINNRNKNLEIMGAICDNYHSSVQFNLEATNNKKPPL chain 6: MSEDKAKLGTTRSATEYRLAIGSAPTSRRSSMGESSSLMKFADQEGLTSSVGEYNENTIQQLLLPKIRELSDSIITLDSNFTRLNFIHESLADLNESLGSLLYGIMSNSWCVEFSQAPHDIQDDLIAIKQLKSLEDEKNNLVMELSNMERGIKRKKDEQGENDLAKASQNKQFNQPLFPSSQVRKYRSYDNRDKRKPSKIGNNLQVENEEDYEDDTSSEASFVLNPTNIGMSKSSQGHVTKTTRLNNNTNSKLRRKSILHTIRNSIASGADLPIENDNVVNLGDLHPNNRISLGSGAARVVNGPVTKNRNSMFSGRAERKPTESRHSVAKKTEKKINTRPPFR chain 7: MSEQSQLDDSTIDKLIPQIFNEMRSNLNNTTNKFPKSTGGGASDNISANSNSIRSFNSITTQSLLKESESLDKITAMIKNVTAALKNNLPVYVNQVHEVCKSTNSILDSWINIHSQAGYIHKLMSDQTYLKLINDRLHNENVNTNDEDGSTLHNVIALKKKEILDLRQKLENRKGEKDAAPAKPPNQGLNPRYGVQSGRRPVPSAGISNNGRVRKTHVPASKRPSGIPRVTNRWTKPTASSSRKMFR chain 8: MNANKQRQYNQLAHELRELQTNLQETTKQLDIMSKQCNENLVGQLGKVHGSWLIGSYIYYMEQMLGKTQ chain 9: MTDALEQSVLALEGTVSVLKDSVESLKCANEPSTNLASTMLQTKRVFRLVPEYDVERSKLDLIEEVEPLVRTLGDKLRKSMGRMQRELDTLQQTYELNDLRLKKNISMDDDDALNSPDMGQEYEGRDADDVVMMASSTNEELEELKKLKEKKKQLENKLEILKQK chain 10: MGESLDRCIDDINRAVDSMSTLYFKPPGIFHNAILQGASNKASIRKDITRLIKDCNHDEAYLLFKVNPEKQSVSRRDGKEGVFDYVIKRDTDMKRNRRLGRPGEKPIIHVPKEVYLNKDRLDLNNKRRRTATTSGGGLNGFIFDTDLIGSSVISNSSSGTFKALSAVFKDDPQIQRLLYALENGSVLMEEESNNQRRKAIFVEDFPTDLILKVMAEVTDLWPLTEFKQDYDQLYHNYEQLSSKLRFIKKEVLLQDDRLKTMSQYHPSSSHDVAKIIRKEKDEIRRLEMEIANLQE | > 5 |  |
| Dam1-GFP CP complex, phosphorylated by Ipl1 (Dam1p S20A, Ask1p S200A, Spc34p T199A; Dam1p C-terminal sites phosphorylated) (complex, yeast, phosphoserine at S257, S265 and S292 (by Ipl1 kinase, nearly stoichiometric), GFP-tagged complex, detected by its GFP; In the tracer assay 20 pM of this complex met 2 nM of the same phosphorylated mutant complex without GFP; also called Dam1 CP phos; Dam1 CP; source: recombinant Dam1 complex (E. coli BL21 Rosetta, purified); phosphorylated with GST-Ipl1, GST-Sli15 (554-698) and 10 mM ATP, 90 min, 30 °C; copies: + + + + + + + + +) chain 1: MDSASKEETLEKLDQEITVNLQKIDSNLSFCFHKITQDIIPHVATYSEICERIMDSTEWLGTMFQETGLVNLQANAAAPVGNAPVKSLVSNNVGIFPTSAEEASRQSQTDNGPNEADSAVHVNRDVHSMFNNDSIDDFHTANITSTGQILKLPDSSDEDTGSEAVPSREQTDLTGEGHGGADDEQDESTIQRQSRKRKIALLLQQQYGSSSSMVPSPIVPNKMRKQLAHEEHINNDGDNDDENSNNIESSPLKQGHHHPKGQADDNNEGPDEEESTKEVPKPGTIIHFSTNR chain 2: MMASTSNDEEKLISTTDKYFIEQRNIVLQEINETMNSILNGLNGLNISLESSIAVGREFQSVSDLWKTLYDGLESLSDEAPIDEQPTLSQSKTK chain 3: MDSIDEQIAIKRKELQSLQKITSLTDGLKIQLTELNEQIKEMGMNADSVAQLMNNWDSIINNISQASLGLLQYAEGDYEIGPWKDSKKKESEQSNETGLEAQENDKNDEDNDEDEDLVPLPETMVRIRVDGNE chain 4: MEHNLSPLQQEVLDKYKQLSLDLKALDETIKELNYSQHRQQHSQQETVSPDEILQEMRDIEVKIGLVGTLLKGSVYSLILQRKQEQESLGSNSK chain 5: MENPHEQVQANILSRIIGNVKRLNESVAILNQELVTINNRNKNLEIMGAICDNYHSSVQFNLEATNNKKPPL chain 6: MSEDKAKLGTTRSATEYRLAIGSAPTSRRSSMGESSSLMKFADQEGLTSSVGEYNENTIQQLLLPKIRELSDSIITLDSNFTRLNFIHESLADLNESLGSLLYGIMSNSWCVEFSQAPHDIQDDLIAIKQLKSLEDEKNNLVMELSNMERGIKRKKDEQGENDLAKASQNKQFNQPLFPSSQVRKYRSYDNRDKRKPSKIGNNLQVENEEDYEDDTSSEASFVLNPTNIGMSKSSQGHVTKTTRLNNNTNSKLRRKSILHTIRNSIASGADLPIENDNVVNLGDLHPNNRISLGSGAARVVNGPVTKNRNSMFSGRAERKPTESRHSVAKKTEKKINTRPPFR chain 7: MSEQSQLDDSTIDKLIPQIFNEMRSNLNNTTNKFPKSTGGGASDNISANSNSIRSFNSITTQSLLKESESLDKITAMIKNVTAALKNNLPVYVNQVHEVCKSTNSILDSWINIHSQAGYIHKLMSDQTYLKLINDRLHNENVNTNDEDGSTLHNVIALKKKEILDLRQKLENRKGEKDAAPAKPPNQGLNPRYGVQSGRRPVPSAGISNNGRVRKTHVPASKRPSGIPRVTNRWTKPTASSSRKMFR chain 8: MNANKQRQYNQLAHELRELQTNLQETTKQLDIMSKQCNENLVGQLGKVHGSWLIGSYIYYMEQMLGKTQ chain 9: MTDALEQSVLALEGTVSVLKDSVESLKCANEPSTNLASTMLQTKRVFRLVPEYDVERSKLDLIEEVEPLVRTLGDKLRKSMGRMQRELDTLQQTYELNDLRLKKNISMDDDDALNSPDMGQEYEGRDADDVVMMASSTNEELEELKKLKEKKKQLENKLEILKQK chain 10: MGESLDRCIDDINRAVDSMSTLYFKPPGIFHNAILQGASNKASIRKDITRLIKDCNHDEAYLLFKVNPEKQSVSRRDGKEGVFDYVIKRDTDMKRNRRLGRPGEKPIIHVPKEVYLNKDRLDLNNKRRRTATTSGGGLNGFIFDTDLIGSSVISNSSSGTFKALSAVFKDDPQIQRLLYALENGSVLMEEESNNQRRKAIFVEDFPTDLILKVMAEVTDLWPLTEFKQDYDQLYHNYEQLSSKLRFIKKEVLLQDDRLKTMSQYHPSSSHDVAKIIRKEKDEIRRLEMEIANLQE |  | binds |
